The values that follow come from article PMC9278865 (Science Advances, 2022).

This assay deals with SARS-CoV-2 RBDwt (residues 319 to 541) (SARS-CoV-2, UniProt P0DTC2 319-541). The assay is described as follows: SPR.

B1: ACE2_(740) LFMYQY2HA in the IgG3 backbone with a truncated hinge (M80) (Fc fusion)
chain: QSTIEEQAKTFLDKFNHEAEDLFYQSSLASWNYNTNITEENVQNMNNAGDKWSAFLKEQSTFAQYYPLQEIQNLTVKLQLQALQQNGSSVLSEDKSKRLNTILNTMSTIYSTGKVCNPDNPQECLLLEPGLNEIMANSLDYNERLWAWESWRSEVGKQLRPLYEEYVVLKNEMARANHYEDYGDYWRGDYEVNGVDGYDYSRGQLIEDVEHTFEEIKPLYEHLHAYVRAKLMNAYPSYISPIGCLPAHLLGDMWGRFWTNLYSLTVPFGQKPNIDVTDAMVDQAWDAQRIFKEAEKFFVSVGLPNMTYGFWENSMLTDPGNVQKAVCHPTAWDLGKGDFRILMCTKVTMDDFLTAHAEMGAIQYDMAYAAQPFLLRNGANEGFHEAVGEIMSLSAATPKHLKSIGLLSPDFQEDNETEINFLLKQALTIVGTLPFTYMLEKWRWMVFKGEIPKDQWMKKWWEMKREIVGVVEPVPHDETYCDPASLFHVSNDYSFIRYYTRTLYQFQFQEALCQAAKHEGPLHKCDISNSTEAGQKLFNMLRLGKSEPWTLALENVVGAKNMNVRPLLNYFEPLFTWLKDQNKNSFVGWSTDWSPYADQSIKVRISLKSALGDKAYEWNDNEMYLFRSSVAYAMRQYFLKVKNQMILFGEEDVRVANLKPRISFNFFVTAPKNVSDIIPRTEVEKAIRMSRSRINDAFRLNDNSLEFLGIQPTLGPPNQPPVS
B1: the binding result is listed as “binds”.
